Test results as given in patent US20260217793A1 (Chugai, published 2026).

T1: FcγRIIa type R extracellular domain with C-terminal His tag (human, UniProt P12318 34-217)
T1 sequence (looked up): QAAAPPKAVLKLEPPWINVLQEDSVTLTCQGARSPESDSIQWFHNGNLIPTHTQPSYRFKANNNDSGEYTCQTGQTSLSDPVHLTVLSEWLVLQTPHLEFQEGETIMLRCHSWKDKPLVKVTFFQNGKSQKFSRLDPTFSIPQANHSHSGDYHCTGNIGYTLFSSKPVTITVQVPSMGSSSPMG

T2: FcγRIIb extracellular domain with C-terminal His tag (human, UniProt P31994 43-217)
T2 sequence (looked up): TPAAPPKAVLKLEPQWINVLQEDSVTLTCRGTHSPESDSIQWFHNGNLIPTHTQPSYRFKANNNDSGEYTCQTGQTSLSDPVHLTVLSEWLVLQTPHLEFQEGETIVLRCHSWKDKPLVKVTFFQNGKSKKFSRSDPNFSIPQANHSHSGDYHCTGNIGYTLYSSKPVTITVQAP

T3: FcγRIIa type H extracellular domain with C-terminal His tag (human, UniProt P12318 34-217)
T3 sequence (looked up): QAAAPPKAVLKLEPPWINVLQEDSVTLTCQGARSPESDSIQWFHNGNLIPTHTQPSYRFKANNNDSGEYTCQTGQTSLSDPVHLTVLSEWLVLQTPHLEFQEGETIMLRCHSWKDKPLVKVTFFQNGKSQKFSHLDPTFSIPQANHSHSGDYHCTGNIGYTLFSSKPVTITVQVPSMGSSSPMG

T4: human FcγRIIa type R (Arg131) extracellular domain with C-terminal His tag (human, UniProt P12318 34-217)
T4 sequence (looked up): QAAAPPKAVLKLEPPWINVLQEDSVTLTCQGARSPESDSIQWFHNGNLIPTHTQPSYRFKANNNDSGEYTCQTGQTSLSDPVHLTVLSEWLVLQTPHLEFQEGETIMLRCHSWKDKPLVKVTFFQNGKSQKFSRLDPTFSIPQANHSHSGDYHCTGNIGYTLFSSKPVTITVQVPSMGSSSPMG

T5: human FcγRIIb extracellular domain with C-terminal His tag (human, UniProt P31994 43-217)
T5 sequence (looked up): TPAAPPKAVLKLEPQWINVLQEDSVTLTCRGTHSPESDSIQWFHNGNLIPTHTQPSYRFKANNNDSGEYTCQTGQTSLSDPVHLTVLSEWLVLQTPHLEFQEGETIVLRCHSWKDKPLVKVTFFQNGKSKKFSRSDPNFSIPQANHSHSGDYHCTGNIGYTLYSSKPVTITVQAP


Tests used:
[1] = target: T1, FcγRIIa type R extracellular domain …; assay: ratio of SPR KDs vs IL6R-B3/IL6R-L
[2] = target: T2, FcγRIIb extracellular domain with …; assay: ratio of SPR KDs vs IL6R-B3/IL6R-L
[3] = target: T3, FcγRIIa type H extracellular domain …; assay: SPR
[4] = target: FcγRIIIa type V extracellular domain with C-terminal His tag (human, UniProt P08637 17-208); assay: SPR
Sequence of FcγRIIIa type V extracellular domain with C-terminal His tag (P08637 17-208 F176V): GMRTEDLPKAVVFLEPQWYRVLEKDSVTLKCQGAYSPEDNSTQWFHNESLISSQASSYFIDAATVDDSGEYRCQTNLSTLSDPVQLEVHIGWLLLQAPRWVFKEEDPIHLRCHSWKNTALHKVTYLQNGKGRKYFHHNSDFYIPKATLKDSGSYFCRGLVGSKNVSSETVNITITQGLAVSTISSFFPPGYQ

[5] = target: T2, FcγRIIb extracellular domain with …; assay: ratio of SPR KDs, FcγRIIaR over FcγRIIb, same variant
[6] = target: T4, human FcγRIIa type R (Arg131) …; assay: SPR
[7] = target: T5, human FcγRIIb extracellular domain with …; assay: SPR
[8] = target: T5, human FcγRIIb extracellular domain with …; assay: SPR; remark: listed apart in the source
[9] = target: human FcγRIIIa type V (Val158) extracellular domain with C-terminal His tag (human, UniProt P08637 17-208); assay: SPR
Sequence of human FcγRIIIa type V (Val158) extracellular domain with C-terminal His tag (P08637 17-208 F176V): as above

[10] = target: T5, human FcγRIIb extracellular domain with …; assay: SPR; remark: listed apart in the source

Row | KD (IIaR) of parent polypeptide/KD (IIaR) of altered polypeptide [1] | KD (IIb) of parent polypeptide/KD (IIb) of altered polypeptide [2] | Kd [3] [µM] | Kd [4] [µM] | KD (IIaR)/KD (IIb) [5] | KD (IIaR) of parent polypeptide/KD (IIaR) of altered polypeptide [6] | KD (IIb) of parent polypeptide/KD (IIb) of altered polypeptide [7] | KD (IIaR)/KD (IIb) [8] | Kd [9] [µM] | KD (IIaH)/KD (IIb) [10] | Binder
1 | 2.2 | 162 | 9.4 | 34 | 26.2 |  |  |  |  |  | IL6R-BP548/IL6R-L (antibody, human IgG1, kappa) heavy: QVQLQESGPGLVKPSETLSLTCAVSGHSISHDHAWSWVRQPPGEGLEWIGFISYSGITNYNPSLQGRVTISRDNSKNTLYLQMNSLRAEDTAVYYCARSLARTTAMDYWGEGTLVTVSSASTKGPSVFPLAPSSKSTSGGTAALGCLVKDYFPEPVTVSWNSGALTSGVHTFPAVLQSSGLYSLSSVVTVPSSSLGTQTYICNVNHKPSNTKVDKKVEPKSCDKTHTCPPCPAPDLLGDDSVFLFPPKPKDTLMISRTPEVTCVVVDVSDEDGEVKFNWYVDGVEVHNAKTKPREEQDNSTYRVVSVLTVLHQDWLNGKEYKCKVSNKALPRPIEKTISKAKGQPREPQVYTLPPSRDELTKNQVSLTCLVKGFYPSDIAVEWESNGQPENNYKTTPPVLDSDGSFFLYSKLTVDKSRWQEGNVFSCSVMHEALHNHYTQESLSLSP light: not shown
2 |  |  |  |  |  | 3.4 | 369 | 38 | 34 |  | IL6R-BP539/IL6R-L (antibody, human IgG1, kappa) heavy: QVQLQESGPGLVKPSETLSLTCAVSGHSISHDHAWSWVRQPPGEGLEWIGFISYSGITNYNPSLQGRVTISRDNSKNTLYLQMNSLRAEDTAVYYCARSLARTTAMDYWGEGTLVTVSSASTKGPSVFPLAPSSKSTSGGTAALGCLVKDYFPEPVTVSWNSGALTSGVHTFPAVLQSSGLYSLSSVVTVPSSSLGTQTYICNVNHKPSNTKVDKKVEPKSCDKTHTCPPCPAPELLGDDSVFLFPPKPKDTLMISRTPEVTCVVIDVGEEDGPVKFNWYVDGVEVHNAKTKPREEQDNSTYRVVSVLTVLHQDWLNGKEYKCKVSNKALPRPIEKTISKAKGQPREPQVYTLPPSRDELTKNQVSLTCLVKGFYPSDIAVEWESNGQPENNYKTTPPVLDSDGSFFLYSKLTVDKSRWQQGNVFSCSVMHEALHNHYTQESLSLSP light: not shown
3 |  |  |  |  |  | 3.3 | 406 |  | 48 | 656 | IL6R-BP550/IL6R-L (antibody, human IgG1, kappa) heavy: QVQLQESGPGLVKPSETLSLTCAVSGHSISHDHAWSWVRQPPGEGLEWIGFISYSGITNYNPSLQGRVTISRDNSKNTLYLQMNSLRAEDTAVYYCARSLARTTAMDYWGEGTLVTVSSASTKGPSVFPLAPSSKSTSGGTAALGCLVKDYFPEPVTVSWNSGALTSGVHTFPAVLQSSGLYSLSSVVTVPSSSLGTQTYICNVNHKPSNTKVDKKVEPKSCDKTHTCPPCPAPELLGDDSVFLFPPKPKDTLMISRTPEVTCVVIDVGEEDGDVKFNWYVDGVEVHNAKTKPREEQDNSTYRVVSVLTVLHQDWLNGKEYKCKVSNKALPRPIEKTISKAKGQPREPQVYTLPPSRDELTKNQVSLTCLVKGFYPSDIAVEWESNGQPENNYKTTPPVLDSDGSFFLYSKLTVDKSRWQQGNVFSCSVMHEALHNHYTQESLSLSP light: not shown
4 |  |  |  |  |  |  | 756 | 28.3 | 27 |  | IL6R-BP533/IL6R-L (antibody, human IgG1, kappa) heavy: QVQLQESGPGLVKPSETLSLTCAVSGHSISHDHAWSWVRQPPGEGLEWIGFISYSGITNYNPSLQGRVTISRDNSKNTLYLQMNSLRAEDTAVYYCARSLARTTAMDYWGEGTLVTVSSASTKGPSVFPLAPSSKSTSGGTAALGCLVKDYFPEPVTVSWNSGALTSGVHTFPAVLQSSGLYSLSSVVTVPSSSLGTQTYICNVNHKPSNTKVDKKVEPKSCDKTHTCPPCPAPDLLGDDSVFLFPPKPKDTLMISRTPEVTCVVIDVGEEDGEVKFNWYVDGVEVHNAKTKPREEQDNSTYRVVSVLTVLHQDWLNGKEYKCKVSNKALPRPIEKTISKAKGQPREPQVYTLPPSRDELTKNQVSLTCLVKGFYPSDIAVEWESNGQPENNYKTTPLVLDSDGSFFLYSKLTVDKSRWQQGNVFSCSVMHEALHNHYTQESLSLSP light: not shown
